One experiment deals with NF-κB. Put plainly: NF-κB luciferase reporter assay in RAW 264.7 cells. In kind it is cell-based, murine. The protocol: The NF-κB Luciferase reporter RAW 264.7 cell line (Novus Biologicals), which expresses an optimized Renilla luciferase reporter gene (RenSP) under the transcriptional control of an NF-κB response element, was used. The cells were seeded (1×10^5 cells/well) into 96-well luminometer-compatible plates for 16 h and then treated with analytes for 6 h. Media from each well were aspirated, and then 100 μL of ice-cold PBS was added to each well. The plates were then frozen solid at −80° C. overnight to completely lyse the cells, thawed back to room temperature, and luciferase assays were performed using the LightSwitch Luciferase assay kit (Novus Biologicals). Luminescence was measured as the relative luminescence units (RLU) using Spectramax (Spectramax, Molecular Devices) and reported as the relative fold change compared with that of the control cells that were treated with media alone. Recombinant human or mouse TNF-α (R&D Systems) and polymyxin B, LPS (E. coli Serotype R515, Re, TLR grade), and proteinase K (each from Sigma-Aldrich) were used.
In general terms: Reporter assays use an easily measured gene product as a stand-in for the process of interest.

The subject of a further experiment is human TNF-α. The experiment in a line: ELISA of TNF-α in Caco-2 cell supernatants. It is filed as cell-based. The settings on record: recombinant LAP 1 μg/mL, 8 h. The protocol: A semi-quantitative membrane-based RayBio Human Inflammation Antibody Array kit (Ray Biotech) was used to analyze a panel of 40 inflammatory mediators in Caco-2 cell supernatant infected either with the WT or lap^− strain (MOI, ˜50) at 37° C. for 1 h. After killing the extracellular bacteria by gentamicin (50 μg/mL), the Caco-2 cells were incubated for an additional 7 h at 37° C. Recombinant LAP (1 μg/mL) from ClearColi was incubated for 8 h with Caco-2 cells. After immunoblotting, the reaction intensity was quantified using NIH ImageJ software. The data were normalized and expressed as the mean fold changes as a ratio of lap^−/WT±SEM. For the ELISA, Caco-2 cell supernatants were centrifuged (2,000 rpm at 4° C. for 10 min) following treatment as above, and the quantification of TNF-α and IL-6 in was performed using human TNF-α and IL-6 ELISA kits (Ray Biotech) as per manufacturer's instruction. The quantification of TNF-α and IL-6 protein levels was performed in the ileal tissue lysates from mice using mouse TNF-α and IL-6 ELISA kits (Ray Biotech) as per manufacturer's instruction.
In general terms: In an ELISA, binding on a coated surface is turned into a signal by an enzyme label.

For a further experiment, the system named is NF-κB(p65). Put plainly: Immunoblot of NF-κB activation in Caco-2 cytoplasmic and nuclear extracts. In kind it is cell-based, human. The protocol:
To extract the proteins from Caco-2 cells, cells were seeded in 6-well plates for 14-21 days. Following treatment, the cells were washed, scraped from the bottom of 6-well plates, suspended in PBS, and pelleted by centrifugation. Total protein from Caco-2 cells was extracted using the M-PER Extraction Kit (Thermo Fisher Scientific). Detergent-insoluble (membrane) and detergent-soluble (cytosolic) proteins were isolated using a Mem-Per Eukaryotic Protein Extraction Kit (Thermo Fisher Scientific) while the cytosolic and nuclear proteins were extracted using NE-PER Extraction Reagent (Thermo Fisher Scientific). To extract proteins from ileal epithelial cells, the epithelial cell fraction from ileal tissues were isolated as described above and the detergent-insoluble and the detergent-soluble proteins were isolated using a Mem-Per Eukaryotic Protein Extraction Kit.
To extract total protein from intact bacterial cells, sample solvent buffer and sonication (3 cycles of […]) were used. To isolate the cell wall-associated proteins bacterial pellets were resuspended in 0.5 ml protein extraction buffer (0.5% SDS, 10 mM Tris at pH 6.9), and incubated at 37° C. for 30 min with agitation. The samples were centrifuged (14,000×g, 10 min, 4° C.), and the supernatants (containing cell wall-associated proteins) were retained. Halt proteases and phosphatase inhibitors (Thermo Fisher Scientific) were used during all of the protein extraction procedures. The protein concentrations were determined by BCA assay (Thermo Fisher Scientific), and separated on SDS-PAGE gels (10-12.5% polyacrylamide) and electro-transferred to polyvinylidene difluoride (PVDF) membrane (Millipore). The membranes were then blocked in 5% nonfat dry milk (NFDM) in 0.1 M Tris-buffered saline, pH 7.5 (TBS) containing 0.1% Tween 20 (TBST) for at least 1 h. All of the primary antibodies were diluted in 5% bovine serum albumin (BSA) or 5% NFDM in TBST and incubated overnight. Secondary antibodies (1:2000 in 5% NFDM in TBST) incubated for 1 h at 37° C., and a chemiluminescence method was performed using LumiGLO reagent (Cell Signaling). The membranes were exposed to X-ray films or visualized using the Chemi-Doc XRS system (Bio-Rad). To immunoprobe the same membrane with another antibody, the originally bound antibodies from the membranes were removed by incubating the membranes in Restore Western Blot Stripping Buffer (Thermo Fisher Scientific) according to the manufacturer's protocol. To compare the reaction intensities, the average band densities were determined using Quantity One software (Bio-Rad). Densitometry reports represent the mean±SEM after normalization to the loading control and is presented as % change of protein with the average for untreated cells (control) set at 100%. Immunoblots and densitometric reports are representative of 2-3 independent experiments.
(Immunoblotting shows a protein as a band on a membrane.)

In a further experiment the test system is Caco-2 cell monolayers. Put plainly: Transepithelial electrical resistance (TEER) of Caco-2 monolayers on Transwell inserts. It is filed as cell-based, human.
Another experiment addresses T1, Hsp60 / IKK-β (Homo sapiens, UniProt P10809).
T1 construct: endogenous in cells; host or cells: Caco-2 (human colon carcinoma, ATCC HTB37)
Put plainly: Co-immunoprecipitation of Hsp60 and IKKβ from Caco-2 cell lysates. It is filed as cell-based. The settings on record: LAP 1 μg/ml, 30 min. The protocol:
Caco-2 cells were treated with or without purified LAP (1 μg/mL) for 30 min, rinsed with cold PBS, and lysed in Nondiet P-40 (NP-40) lysis buffer (20 mM Tris HCl, pH 8,137 mM NaCl, 1% NP-40, 2 mM EDTA). The cell lysates were pre-cleared with 10 μl protein G agarose beads (MicroProtein Technologies) for 1 h and the lysates were incubated with 2 μg of anti-IKKβ, 2 μg of anti-Hsp60, rabbit serum or normal mouse serum overnight at 4° C. The lysates were further mixed with 20 μL protein G agarose beads for 3 h at 4° C. The beads were washed five times with 1 ml NP-40 lysis buffer. The protein precipitates were analyzed by immunoblotting, and the complexes were visualized by chemiluminescence assay.

The mark [1] stands for this setting: Caco-2 cells, LAP 1 μg/ml, 30 min (FIG. 5D).
[2] abbreviates: LAP 1000 ng/mL or TNF-α 10 ng/mL.
Setting [3] is: shRNA vector control Caco-2 cells, LAP 1 μg/mL (FIG. 5B).

T1 sequence (P10809 27-573): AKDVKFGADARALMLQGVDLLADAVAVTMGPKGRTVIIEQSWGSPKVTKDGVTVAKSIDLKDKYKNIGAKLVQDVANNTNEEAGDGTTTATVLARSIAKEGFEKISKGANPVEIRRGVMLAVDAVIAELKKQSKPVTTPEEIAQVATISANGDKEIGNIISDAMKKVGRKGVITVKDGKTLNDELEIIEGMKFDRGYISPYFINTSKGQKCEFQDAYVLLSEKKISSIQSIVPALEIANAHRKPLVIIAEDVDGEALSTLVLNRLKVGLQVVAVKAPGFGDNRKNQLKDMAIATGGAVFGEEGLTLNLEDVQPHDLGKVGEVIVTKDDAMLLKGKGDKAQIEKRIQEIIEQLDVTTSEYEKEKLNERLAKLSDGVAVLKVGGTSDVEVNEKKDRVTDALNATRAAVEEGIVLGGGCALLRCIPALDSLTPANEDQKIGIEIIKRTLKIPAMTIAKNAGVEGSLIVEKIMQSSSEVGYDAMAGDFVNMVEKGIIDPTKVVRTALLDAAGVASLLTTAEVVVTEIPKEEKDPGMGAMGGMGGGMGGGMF

B1: LAP: Listeria adhesion protein, alcohol acetaldehyde dehydrogenase of Listeria monocytogenes, 866 aa, 94 kDa; recombinant, histidine-tagged form SEQ ID NO: 10 (protein)
chain: MAIKENAAQEVLEVQKVIDRLADNGQKALKAFESYNQEQVDNIVHAMALAGLDQHMPLAKLAVEETGRGLYEDKCIKNIFATEYIWNNIKNNKTVGVINEDVQTGVIEIAEPVGVVAGVTPVTNPTSTTLFKAIIAIKTRNPIIFAFHPSAQRCSSAAAKVVYDAAIAAGAPEHCIQWVEKPSLEATKQLMNHDKVALVLATGGAGMVKSAYSTGKPALGVGPGNVPAYIDKTAKIKRSVNDIILSKSFDQGMICASEQAVIVDKEVAKEVKAEMEANKCYFVKGAEFKKLESYVINPEKGTLNPDVVGKSPAWIANQAGFKVPEDTKILVAEIKGVGDKYPLSHEKLSPVLAFIEAANQAEAFDRCEEMLVYGGLGHSAVIHSTDKEVQKAFGIRMKACRIIVNAPSAQGGIGDIYNGFIPSLTLGCGSYGKNSVSQNVSATNLLNVKRIADRRNNMQWFKLPPKIFFEKYSTQYLQKMEGVERVFIVTDPGMGSFKYVDVVIEHLKKRGNDVAYQVFADVEPDPSDVTVYKGAELMKDFKPDTIIALGGGSAMDAAKGMWLFYEHPEASFFGLKQKFLDIRKRTFKYPKLGGKAKFVAIPTTSGTGSEVTPFAVITDKENNIKYPLADYELTPDVAIVDAQYVTTVPAHITADTGMDVLTHAIESYVSVMASDYTRGLSIRAIELVFENLRESVLTGDPDAREKMHNASALAGMAFANAFLGINHSLAHKIGPEFHIPHGRANAILMPHVIRYNALKPKKHALFPRYESFRADEDYARISRIIGFPAATTEEGVKSLVDEIIKLGKDVGIDMSLKGQNVAKKDLDAVVDTLADRAFMDQCTTANPKQPLVSELKEIYLEAYKGV
modifications: Listeria monocytogenes
For the molecule B1, in the experiment on NF-κB, the “NF-κB activation ability after polymyxin-B treatment” value was “retained the NF-κB activation ability” and the “NF-κB activation after proteinase-K treatment” value was “abolished”. For the same molecule, the “NF-κB activation ability after heat treatment” value with NF-κB (100° C., 10 min) was “abolished the NF-κB activation ability”. Also, the NF-κB activation result with NF-κB (purified proteins, LPS positive control) was “NF-κB activation in a concentration-dependent manner”. For the same molecule, in the experiment on human TNF-α, the TNF-α production entry was “significantly higher levels”. For the same molecule, in the experiment on NF-κB(p65) (setting [1]), the “increase of IKK-β protein expression” value was found to be 53±2% and the “increase of p65 protein expression” value was determined as 63±5%. In the experiment with NF-κB(p65) (Hsp60 knocked-down (hsp60::shRNA) Caco-2 cells, LAP 1 μg/mL), the “protein expression levels of IKK-β and p65” value is listed as “basal protein expression levels”. Also, in the experiment on NF-κB(p65) (LAP 1 μg/mL, 30 min), the “increase of IKKα in the cytosol relative to untreated cells” value was found to be 267±7%, the “increase of P-p65 in the nucleus relative to untreated cells” value turned out to be 120±23% and the “increase of p65 in the nucleus relative to untreated cells” value was 218±32%. For the same molecule, in the experiment with NF-κB(p65) (setting [2]), the “time of appearance of cytoplasmic phospho-IκBα (Ser32)” value is 15 min; the “time of increase in nuclear p65 and P-p65” value turned out to be 30 min. Further, in the experiment with NF-κB(p65) (LAP 1000 ng/mL, 0-120 min), the “time by which most IκBα was degraded” value is not above 45 min and the “time of rapid degradation of IκBα” value is recorded as not above 15 min. For the same molecule, in the experiment on NF-κB(p65) (setting [3]), the “increase of IKK-β protein expression” value is recorded as 52±8% and the “increase of p65 protein expression” value is listed as 54±8%. In addition, the “LAP concentration giving maximum reduction in TEER” value in the experiment with Caco-2 cell monolayers (apical treatment, 1-1000 ng/mL, 48-h period) is 500 to 1000 ng/mL. Also, the “reduction in TEER” value in the experiment on Caco-2 cell monolayers (purified recombinant LAP added to both the basolateral and apical compartments) came out at 25±2%. Besides, in the experiment with Caco-2 cell monolayers (purified recombinant LAP added to the apical compartment), the “reduction in TEER” value worked out at 12±1%. For the same molecule, the “reduction in TEER” value in the experiment on Caco-2 cell monolayers (purified recombinant LAP added to the basolateral compartment) is 27±1%. Further, the “interaction of Hsp60 with IKK-β” value in the experiment with Hsp60 / IKK-β was “Hsp60 co-precipitation”.

Values taken from patent publication US10632208B2, “Peptide-mediated drug delivery across epithelial barrier” (Purdue Research Foundation, priority 2017, dated 2020).
